These results are taken from IntAct's records for PubMed 18653891.

To fix the notation:
B1: Serine/threonine-protein kinase BSK1 (Arabidopsis thaliana (Mouse-ear cress)), Q944A7 (parent)
chain: MGCCQSLFSGDNPLGKDGVQPQPLSQNNHGGATTADNGGSGGASGVGGGGGGGGIPSFSEFSFADLKAATNNFSSDNIVSESGEKAPNLVYKGRLQNRRWIAVKKFTKMAWPEPKQFAEEAWGVGKLRHNRLANLIGYCCDGDERLLVAEFMPNDTLAKHLFHWENQTIEWAMRLRVGYYIAEALDYCSTEGRPLYHDLNAYRVLFDEDGDPRLSCFGLMKNSRDGKSYSTNLAYTPPEYLRNGRVTPESVTYSFGTVLLDLLSGKHIPPSHALDMIRGKNIILLMDSHLEGKFSTEEATVVVELASQCLQYEPRERPNTKDLVATLAPLQTKSDVPSYVMLGIKKQEEAPSTPQRPLSPLGEACSRMDLTAIHQILVMTHYRDDEGTNELSFQEWTQQMKDMLDARKRGDQSFREKDFKTAIDCYSQFIDVGTMVSPTVFGRRSLCYLLCDQPDAALRDAMQAQCVYPDWPTAFYMQSVALAKLNMNTDAADMLNEAAQLEEKRQRGGRGS

Variants of B1 are the subject of this assay. As to conditions: with bri1_arath BRI1, O22476.
Chain of bri1_arath BRI1, O22476 (O22476 whole entry): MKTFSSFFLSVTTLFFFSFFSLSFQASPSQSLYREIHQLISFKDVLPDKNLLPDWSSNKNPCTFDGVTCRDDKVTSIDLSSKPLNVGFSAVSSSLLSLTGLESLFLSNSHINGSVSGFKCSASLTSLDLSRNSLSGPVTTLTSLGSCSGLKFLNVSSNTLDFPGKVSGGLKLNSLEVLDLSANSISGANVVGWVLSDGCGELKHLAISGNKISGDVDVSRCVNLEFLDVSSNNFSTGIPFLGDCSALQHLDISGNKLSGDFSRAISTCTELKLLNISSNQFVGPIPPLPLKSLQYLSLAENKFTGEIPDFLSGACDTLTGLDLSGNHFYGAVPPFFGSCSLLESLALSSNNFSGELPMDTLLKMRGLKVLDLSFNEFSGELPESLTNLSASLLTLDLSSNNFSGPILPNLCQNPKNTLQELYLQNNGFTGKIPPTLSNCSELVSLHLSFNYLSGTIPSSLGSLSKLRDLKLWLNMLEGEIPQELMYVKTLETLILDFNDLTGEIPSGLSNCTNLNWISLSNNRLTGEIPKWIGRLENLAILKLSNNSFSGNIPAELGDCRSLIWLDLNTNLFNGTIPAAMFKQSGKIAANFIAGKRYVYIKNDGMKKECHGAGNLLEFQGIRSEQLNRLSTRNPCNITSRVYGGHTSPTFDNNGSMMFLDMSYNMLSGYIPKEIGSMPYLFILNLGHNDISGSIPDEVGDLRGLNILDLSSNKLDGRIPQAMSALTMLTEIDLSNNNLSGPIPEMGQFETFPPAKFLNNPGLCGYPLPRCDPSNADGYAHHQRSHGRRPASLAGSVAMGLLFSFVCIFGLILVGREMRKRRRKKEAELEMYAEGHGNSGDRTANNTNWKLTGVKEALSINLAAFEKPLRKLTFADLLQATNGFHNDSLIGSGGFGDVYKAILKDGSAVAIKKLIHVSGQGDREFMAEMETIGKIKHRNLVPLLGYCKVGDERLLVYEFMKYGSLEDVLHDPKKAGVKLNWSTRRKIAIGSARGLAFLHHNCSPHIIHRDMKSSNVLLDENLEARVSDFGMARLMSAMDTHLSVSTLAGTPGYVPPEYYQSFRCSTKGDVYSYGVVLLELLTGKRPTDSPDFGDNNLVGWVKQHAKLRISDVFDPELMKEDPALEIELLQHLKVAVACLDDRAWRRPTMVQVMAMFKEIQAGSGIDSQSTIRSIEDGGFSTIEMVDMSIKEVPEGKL
Take S230A: the “effect of a mutation on the interaction” value is listed as “decreasing interaction”.
